For the assay, the target named is T1, human BTLA (human, UniProt Q7Z6A9 31-289).
T1 construct: also called hBTLA; HEK293.hBTLA
T1 sequence: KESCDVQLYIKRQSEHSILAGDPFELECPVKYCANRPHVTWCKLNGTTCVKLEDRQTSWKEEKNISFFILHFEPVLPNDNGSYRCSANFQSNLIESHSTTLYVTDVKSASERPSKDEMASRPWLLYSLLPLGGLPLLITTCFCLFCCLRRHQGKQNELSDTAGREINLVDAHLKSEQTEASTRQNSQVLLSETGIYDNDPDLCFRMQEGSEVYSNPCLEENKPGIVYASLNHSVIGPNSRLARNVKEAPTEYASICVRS
Put plainly: flow cytometry, HEK293 cells overexpressing human BTLA. As for the experimental part: HEK293 cells overexpressing human BTLA and Expi293 cells overexpressing cynomolus BTLA were incubated with different concentrations of humanized anti-BTLA antibodies. Anti-BTLA antibody binding to target cells were quantified with an AF647-conjugated anti-human IgG Fc secondary antibody by flow cytometry.

Substitutions are numbered along the chain they refer to.

B1: HFB6-5hz17-hG1 (antibody, human IgG1, V domains shown)
VH: QVQLQESGPGLVKPSGTLSLTCAASGVNIKDTYMYWVRQPPGKGLEWIGRIDPANGYTRYNPSFKSRATISADKSKNQASLKLSSVTAADTAVYYCAVYDGYYESFDVWGQGTLVTVSS
VL: EIVLTQSPGTLSVSPGERATISCRSSQSLLDSDGKTYLNWLQQKPGQAPRRLIYLVSKRDTGVPDRFSGSGSGTDFTLTISRVEPEDFAVYYCWQGTLFPRTFGQGTKLEIK
notes: Humanized variant of HFB6-5, human IgG1 (hG1)
Take B1: the binding result is on record as “binds”.

B2: HFB6-5hz18-hG1 (antibody, human IgG1, V domains shown)
VH: EVQLVQSGAEVKKPGESLKISCKGSGVNIKDTYMYWVRQMPGKGLEWIGRIDPANGYTRYSPSFQGQVTISADKSISTAYLQLSSLKASDTAMYYCAVYDGYYESFDVWGQGTLVTVSS
VL: B1 VL
notes: as for B1
For B2, the binding result is given as “binds”.

B3: HFB6-4hz21-hG1 (antibody, human IgG1, V domains shown)
VH: EVQLVESGGGLVQPGRSLRLSCTTSGFNIKDTYIHWFRQAPGKGLEWVGRNDPANGNTKYTASFKGRATISADGSKSIAYLQMNSLKTEDTAVYYCASYEGYYERFGYWGQGTLVTVSS
VL: DIVMTQSPDSLAVSLGERATINCKSSQSLLDRDGKTYLNWLQQKPGQSPKRLIYLVSKLDSGVPDRFSGSGSGTDFTLTISSLQAEDLAVYYCWQDTHFPYTFGQGTKLEIK
notes: Humanized variant of HFB6-4, human IgG1 (hG1)
In the case of B3, the binding result is reported as “binds”.

B4: HFB6-4hz24-hG1 (antibody, human IgG1, V domains shown)
VH: EVQLVQSGAEVKKPGESLKISCKTSGFNIKDTYIHWVRQMPGKGLEWIGRNDPANGNTKYSPSFQGQVTISADKSISTAYLQLSSLKASDTAMYYCASYEGYYERFGYWGQGTLVTVSS
VL: B3 VL
notes: as for B3
For the molecule B4, the binding result is reported as “binds”.

B5: HFB6-4hz23-hG1 (antibody, human IgG1, V domains shown)
VH: QVQLQESGPGLVKPSGTLSLTCAVSGFNIKDTYIHWVRQPPGKGLEWIGRNDPANGNTKYNPSFKSRATISADKSKNQASLKLSSVTAADTAVYYCASYEGYYERFGYWGQGTLVTVSS
VL: B3 VL
notes: as for B3
With B5, the binding result is recorded as “binds”.

B6: HFB6-5hz19-hG1 (antibody, human IgG1, V domains shown)
VH: QVQLVQSGAEVKKPGSSVKVSCKASGVNIKDTYMYWVRQAPGQGLEWIGRIDPANGYARYAQKFQGRATITADESTSTAYMELSSLRSEDTAVYYCAVYDGYYESFDVWGQGTLVTVSS
VL: B3 VL with R32S, L83V, D96G, H98L, Y101R
notes: as for B1
Regarding B6, the binding result was “binds”.

B7: HFB6-4hz22-hG1 (antibody, human IgG1, V domains shown)
VH: EVQLVESGGGLVQPGGSLKLSCATSGFNIKDTYIHWVRQASGKGLEWIGRNDPANGNTKYAASFKGRATISADDSKNTAYLQLNSLKTEDTAVYYCASYEGYYERFGYWGQGTLVTVSS
VL: B3 VL
notes: as for B3
Consider B7, for which the binding result was “binds”.

B8: HFB6-5hz20-hG1 (antibody, human IgG1, V domains shown)
VH: B6 VH with S16A, A58T, E74T, A79V
VL: B3 VL with R32S, L83V, D96G, H98L, Y101R
notes: as for B1
As for B8, the binding result is “binds”.

B9: HFB6-5hz9-hG1 (antibody, human IgG1, V domains shown)
VH: EVQLVESGGGLVQPGRSLRLSCTASGVNIKDTYMYWVRQAPGKGLEWVGRIDPANGYTRYTASFKGRATISADGSKSIAYLQMNSLKTEDTAVYYCAVYDGYYESFDVWGQGTLVTVSS
VL: DVVMTQSPLSLPVTLGQPASISCRSSQSLLDSDGKTYLNWLQQRPGQSPRRLIYLVSKRDSGVPDRFSGSGSGTDFTLKISRVEAEDLGVYYCWQGTLFPRTFGQGTKLEIK
notes: as for B1
As to B9, the binding result is recorded as “binds”.

B10: HFB6-5hz11-hG1 (antibody, human IgG1, V domains shown)
VH: B1 VH
VL: B9 VL
notes: as for B1
With B10, the binding result was “binds”.

B11: HFB6-5hz12-hG1 (antibody, human IgG1, V domains shown)
VH: B2 VH
VL: B9 VL
notes: as for B1
Regarding B11, the binding result is listed as “binds”.

B12: HFB6-5hz15-hG1 (antibody, human IgG1, V domains shown)
VH: B9 VH
VL: B1 VL
notes: as for B1
In the case of B12, the binding result is “binds”.

B13: HFB6-5hz16-hG1 (antibody, human IgG1, V domains shown)
VH: B9 VH with R16G, R19K, T23A, P41S, V48I, T61A, G74D, S77N, I78T, M83L
VL: B1 VL
notes: as for B1
For B13, the binding result is given as “binds”.

B14: HFB6-5hz10-hG1 (antibody, human IgG1, V domains shown)
VH: B9 VH with R16G, R19K, T23A, P41S, V48I, T61A, G74D, S77N, I78T, M83L
VL: B9 VL
notes: as for B1
As to B14, the binding result is recorded as “binds”.

B15: HFB6-4-hG1 (human-mouse chimeric monoclonal antibody) (antibody, human IgG1, kappa, V domains shown)
VH: EVQLQQSGAELVNPGASVKLSCTTSGFNIKDTYIHWVKQRPEQGLEWIGRNDPANGNTKYDPKFQGKATITADTSSSTAYLQLSSLTSEDTAVYYCASYEGYYERFGYWGQGTLVTVSA
VL: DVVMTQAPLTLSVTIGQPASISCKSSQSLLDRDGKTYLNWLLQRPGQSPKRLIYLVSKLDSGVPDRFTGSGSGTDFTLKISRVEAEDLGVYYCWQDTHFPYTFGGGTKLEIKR
notes: also called HFB6-4 parental antibody
For B15, the binding result is “binds”.

B16: HFB6-5hz1-hG1 (antibody, human IgG1, V domains shown)
VH: B6 VH
VL: DIQMTQSPSSLSASVGDRVTITCRSSQSLLDSDGKSYLNWLQQKPGKAPKRLIYLVSKLDSGVPSRFSGSGSGTDFTLTISSLQPEDFATYYCWQGTLFPRTFGQGTKLEIK
notes: as for B1
As for B16, the binding result is on record as “binds”.

B17: HFB6-4hz1-hG1 (antibody, V domains shown)
VH: QVQLVQSGAEVKKPGSSVKVSCKTSGFNIKDTYIHWVRQAPGQGLEWIGRNDPANGNTKYAQKFQGRATITADESTSTAYMELSSLRSEDTAVYYCASYEGYYERFGYWGQGTLVTVSS
VL: B16 VL with S32R, G96D, L98H, R101Y
notes: Humanized variant of HFB6-4, human IgG1 (hG1); Only VH and VL are tied to the name
In the case of B17, the binding result is listed as “binds”.

B18: HFB6-5hz3-hG1 (antibody, human IgG1, V domains shown)
VH: B9 VH
VL: B16 VL
notes: as for B1
Consider B18, for which the binding result is reported as “binds”.

B19: HFB6-5hz13-hG1 (antibody, human IgG1, V domains shown)
VH: B6 VH
VL: B1 VL
notes: as for B1
On to B19, for which the binding result is “binds”.

B20: HFB6-5hz5-hG1 (antibody, human IgG1, V domains shown)
VH: B1 VH
VL: B16 VL
notes: as for B1
Regarding B20, the binding result is “binds”.

B21: HFB6-5hz6-hG1 (antibody, human IgG1, V domains shown)
VH: B2 VH
VL: B16 VL
notes: as for B1
With B21, the binding result is reported as “binds”.

B22: HFB6-5hz7-hG1 (antibody, human IgG1, V domains shown)
VH: B6 VH
VL: B9 VL
notes: as for B1
With B22, the binding result is recorded as “binds”.

B23: HFB6-5hz14-hG1 (antibody, human IgG1, V domains shown)
VH: B6 VH with S16A, A58T, E74T, A79V
VL: B1 VL
notes: as for B1
Turning to B23, the binding result is on record as “binds”.

B24: HFB6-5hz2-hG1 (antibody, human IgG1, V domains shown)
VH: B6 VH with S16A, A58T, E74T, A79V
VL: B16 VL
notes: as for B1
Consider B24, for which the binding result is recorded as “binds”.

B25: HFB6-4hz2-hG1 (antibody, human IgG1, V domains shown)
VH: B17 VH with S16A, A68V, I70M, E74T, A79V
VL: B16 VL with S32R, G96D, L98H, R101Y
notes: as for B3
In the case of B25, the binding result is reported as “binds”.

B26: HFB6-5hz8-hG1 (antibody, human IgG1, V domains shown)
VH: B6 VH with S16A, A58T, E74T, A79V
VL: B9 VL
notes: as for B1
As to B26, the binding result is reported as “binds”.

B27: HFB6-5hz4-hG1 (antibody, human IgG1, V domains shown)
VH: B9 VH with R16G, R19K, T23A, P41S, V48I, T61A, G74D, S77N, I78T, M83L
VL: B16 VL
notes: as for B1
As for B27, the binding result was “binds”.

(Values after patent publication US20250388673A1 (HIFIBIO, published 2025).)
